Measured values from patent US20250376507A1, “NOVEL TUMOR ANTIGEN-TARGETING ANTICANCER AGENT” (INDUSTRY FOUNDATION OF CHONNAM NATIONAL UNIVERSITY, priority 2022, published 2025).
Values joined by “and” are separate entries in the source; they are usually repeats but may differ in a detail not shown here. Equal entries are not always repeated.

Legend:
[1] = L-ASNase activity analysis (asparaginase activity kit); assay type: biochemical; details: 25° C.
Method: The L-ASNase enzyme activity of the recombinant proteins was measured with an asparaginase activity analysis kit using an OxiRed probe (Abcam, USA). 1 International unit (IU) was defined as the amount of enzyme generating 1.0 μmol of Asp per minute at 25° C.

[2] = Thermal stability analysis at 55° C.; assay type: physicochemical; details: after 180 min
Method: Briefly, 200 μL of PASylated recombinant protein or L-ASNase (1 mg/mL) was incubated in a thermal cycler (Finepcr, Korea) at 55° C. for 30-180 min. The residual enzymatic activity of the proteins was measured using an asparaginase activity analysis kit as described above. The residual activity (%) at each incubation time was calculated relative to the sample activity at time 0.

[3] = In vivo pharmacokinetic analysis; set-up: species or system BALB/c mice; details: 10 IU intravenous, mouse serum
Method: Six-week-old female BALB/c mice (Orient Company, Korea) were randomly assigned to different treatment groups (n=3) and intravenously injected with 10 IU of PASylated recombinant protein. Then, blood samples were taken from the eyes at the specified time (0-52 h) and left at 4° C. for 40 min. After centrifugation at 12,000 rpm for 20 min, the serum fraction was obtained and stored at −80° C. before further analysis. PASylated recombinant protein in serum was assessed using the ELISA method described above. The amount of serum recombinant protein was converted to enzyme activity.

[4] = system: CT-26 cells; assay: Cell viability (CCK-8) of CT-26 cells; assay type: cell-based, mouse
Method: CT-26 and MC-38 cells (10^4 cells per well) were seeded into three wells of a 96-well plate and incubated at 37° C. The next day, the culture medium was replaced with 100 μL of fresh medium containing the above concentrations of anticancer agents. After incubation at 37° C. for 4 h, the culture medium was removed and the cells were washed three times with PBS. […] Finally, CCK-8 reagent (10 μL/well) was added for 3 h at 37° C., and the amount of color in each sample was measured at OD450.

[5] = system: CT-26 cells; assay: Flow cytometry for ecto-CRT exposure in L-ASNase-treated CT-26 cells; assay type: cell-based, mouse; details: 200 IU/mL, 24 h
Method: FIG. 6a is a graph showing the analysis of the cytotoxicity enhanced by CRT3LP and CRT4LP in tumor cells treated with ICD-induced anticancer agents and the viability of tumor cells treated with L-ASNases. CT-26 cells (4×10^4) cultured overnight were treated with L-ASNases (200 IU/mL) in 96-well plates and viability was measured at the indicated times. The viability at each time was calculated relative to time 0. Cells were stained with anti-CRT antibodies.
FIG. 6b is a graph representing the results of flow cytometry histogram analysis for ecto-CRT. Filled black lines stained with isotype antibodies; red lines stained with anti-CRT antibodies.

B1: L-ASNase: L-asparaginase, enzyme that hydrolyzes L-asparagine; purchased from Prospec, used as free control (protein)
chain: LPNITILATGGTIAGGGDSATKSNYTAGKVGVENLVNAVPQLKDIANVKGEQVVNIGSQDMNDDVWLTLAKKINTDCDKTDGFVITHGTDTMEETAYFLDLTVKCDKPVVMVGAMRPSTSMSADGPFNLYNAVVTAADKASANRGVLVVMNDTVLDGRDVTKTNTTDVATFKSVNYGPLGYIHNGKIDYQRTPARKHTSDTPFDVSKLNELPKVGIVYNYANASDLPAKALVDAGYDGIVSAGVGNGNLYKTVFDTLATAAKNGTAVVRSSRVPTGATTQDVEVDDAKYGFVASGTLNPQKARVLLQLALTQTKDPQQIQQIFNQY
modifications: L-asparaginase
notes: L-asparaginase, enzyme that hydrolyzes L-asparagine; purchased from Prospec, used as free control
With B1 the “enzymatic activity (specific activity)” value [1] was roughly 7.2 IU/nmol, the “residual enzymatic activity, of the initial activity” value [2] was 16.4% and the half-life [3] was 1.8 h and 1.79 ± 0.22 h. For the same molecule, the “reduction of cell viability in cells pretreated with anticancer agents” value ([4]; 1 IU/mL, 24 h after pretreatment) was “barely reduced”, the cell viability ([4]; 200 IU/mL, 24 h, no anticancer pretreatment) was “progressive decrease in viability” and the “CRT exposure (ecto-CRT)” value [5] was “no significant CRT exposure”.
